Columns and labels:
[1] = target: T1, 4H2503-bA; assay: two-hybrid library CCNG1;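 also: natural log of median RNA to DNA barcode read ratio; higher means stronger binding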
T1 chain: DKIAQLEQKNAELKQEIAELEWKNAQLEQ

[2] = target: T2, 4H741-bA; assay: two-hybrid library CCNG1;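 also: natural log of median RNA to DNA barcode read ratio; higher means stronger binding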
T2 chain: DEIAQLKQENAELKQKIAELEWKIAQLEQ

[3] = target: T3, 4H2588-bA; assay: two-hybrid library CCNG1;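 also: natural log of median RNA to DNA barcode read ratio; higher means stronger binding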
T3 chain: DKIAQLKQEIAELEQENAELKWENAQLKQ

[4] = target: T4, 4H2143-bA; assay: two-hybrid library CCNG1;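 also: natural log of median RNA to DNA barcode read ratio; higher means stronger binding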
T4 chain: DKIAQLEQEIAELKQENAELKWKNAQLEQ

[5] = target: T5, 4H3277-bA; assay: two-hybrid library CCNG1;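 also: natural log of median RNA to DNA barcode read ratio; higher means stronger binding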
T5 chain: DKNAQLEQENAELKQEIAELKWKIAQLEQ

[6] = target: T6, 4H2692-bA; assay: two-hybrid library CCNG1;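 also: natural log of median RNA to DNA barcode read ratio; higher means stronger binding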
T6 chain: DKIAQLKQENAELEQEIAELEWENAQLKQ

[7] = target: T7, 4H2134-bA; assay: two-hybrid library CCNG1
T7 chain: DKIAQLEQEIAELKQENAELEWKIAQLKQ

[8] = target: T8, 4H182-bA; assay: two-hybrid library CCNG1
T8 chain: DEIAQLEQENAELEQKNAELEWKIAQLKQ

[9] = target: T9, 4H2839-bA; assay: two-hybrid library CCNG1
T9 chain: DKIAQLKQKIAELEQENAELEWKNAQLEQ

[10] = target: T10, 4H2438-bA; assay: two-hybrid library CCNG1
T10 chain: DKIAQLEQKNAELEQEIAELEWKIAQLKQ

[11] = target: T11, 4H319-bA; assay: two-hybrid library CCNG1
T11 chain: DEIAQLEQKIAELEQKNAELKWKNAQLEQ

[12] = target: T12, 4H121-bA; assay: two-hybrid library CCNG1
T12 chain: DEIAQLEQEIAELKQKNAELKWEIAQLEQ

[13] = target: T13, 4H2915-bA; assay: two-hybrid library CCNG1
T13 chain: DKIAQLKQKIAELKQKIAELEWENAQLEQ

[14] = target: T14, 4H40-bA; assay: two-hybrid library CCNG1
T14 chain: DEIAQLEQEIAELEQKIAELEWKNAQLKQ

[15] = target: T15, 4H2717-bA; assay: two-hybrid library CCNG1
T15 chain: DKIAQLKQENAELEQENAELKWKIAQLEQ

[16] = target: T16, 4H3057-bA; assay: two-hybrid library CCNG1
T16 chain: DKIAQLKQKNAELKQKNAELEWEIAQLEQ

[17] = target: T17, 4H348-bA; assay: two-hybrid library CCNG1
T17 chain: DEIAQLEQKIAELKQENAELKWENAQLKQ

[18] = target: T18, 4H2473-bA; assay: two-hybrid library CCNG1
T18 chain: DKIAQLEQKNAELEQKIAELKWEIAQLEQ

[19] = target: T19, 4H2223-bA; assay: two-hybrid library CCNG1
T19 chain: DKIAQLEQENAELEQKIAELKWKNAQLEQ

[20] = target: T20, 4H492-bA; assay: two-hybrid library CCNG1
T20 chain: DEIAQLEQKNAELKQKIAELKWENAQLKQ

[21] = target: T21, 4H2444-bA; assay: two-hybrid library CCNG1
T21 chain: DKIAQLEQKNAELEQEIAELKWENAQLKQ

[22] = target: T22, 4H477-bA; assay: two-hybrid library CCNG1
T22 chain: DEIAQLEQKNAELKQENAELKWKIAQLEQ

[23] = target: T23, O1-bA; assay: two-hybrid library CCNG1
T23 chain: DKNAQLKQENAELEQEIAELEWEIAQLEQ

[24] = target: T24, O10-bA; assay: two-hybrid library CCNG1
T24 chain: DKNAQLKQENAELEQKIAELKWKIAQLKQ

[25] = target: T25, O13-bA; assay: two-hybrid library CCNG1
T25 chain: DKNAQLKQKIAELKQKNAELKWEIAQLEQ

[26] = target: T26, O3-bA; assay: two-hybrid library CCNG1
T26 chain: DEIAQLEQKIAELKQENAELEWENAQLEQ

[27] = target: T27, O11-bA; assay: two-hybrid library CCNG1
T27 chain: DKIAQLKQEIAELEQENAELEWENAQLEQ

[28] = target: T28, O7-bA; assay: two-hybrid library CCNG1
T28 chain: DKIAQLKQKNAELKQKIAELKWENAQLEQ

[29] = target: T29, O4-bA; assay: two-hybrid library CCNG1
T29 chain: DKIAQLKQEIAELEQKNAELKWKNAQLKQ

[30] = target: T30, O9-bA; assay: two-hybrid library CCNG1
T30 chain: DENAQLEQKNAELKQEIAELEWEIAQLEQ

[31] = target: T31, O12-bA; assay: two-hybrid library CCNG1
T31 chain: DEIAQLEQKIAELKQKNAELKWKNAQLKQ

[32] = target: T32, O5-bA; assay: two-hybrid library CCNG1
T32 chain: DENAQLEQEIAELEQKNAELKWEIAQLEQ

[33] = target: T33, O16-bA; assay: two-hybrid library CCNG1
T33 chain: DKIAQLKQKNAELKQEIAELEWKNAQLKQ

[34] = target: T34, O2-bA; assay: two-hybrid library CCNG1
T34 chain: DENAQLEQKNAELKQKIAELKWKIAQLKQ

[35] = target: T35, O15-bA; assay: two-hybrid library CCNG1
T35 chain: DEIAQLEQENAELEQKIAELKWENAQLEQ

[36] = target: T36, O8-bA; assay: two-hybrid library CCNG1
T36 chain: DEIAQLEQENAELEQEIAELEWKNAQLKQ

[37] = target: T37, O6-bA; assay: two-hybrid library CCNG1
T37 chain: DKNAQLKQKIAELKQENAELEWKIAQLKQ

[38] = target: T38, O14-bA; assay: two-hybrid library CCNG1
T38 chain: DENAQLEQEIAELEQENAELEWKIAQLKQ

[39] = target: T39, 4H3961-bN; assay: two-hybrid library CCNG1; conditions: mean of both orientations
T39 chain: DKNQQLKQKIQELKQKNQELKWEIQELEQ

[40] = target: T40, 4H363-bN; assay: two-hybrid library CCNG1
T40 chain: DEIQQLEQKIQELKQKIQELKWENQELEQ

[41] = target: T41, 4H2568-bN; assay: two-hybrid library CCNG1
T41 chain: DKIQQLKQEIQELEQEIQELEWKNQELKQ

[42] = target: T42, 4H470-bN; assay: two-hybrid library CCNG1
T42 chain: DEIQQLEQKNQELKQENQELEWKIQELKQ

[43] = target: T43, 4H2745-bN; assay: two-hybrid library CCNG1
T43 chain: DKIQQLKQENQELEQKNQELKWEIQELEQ

[44] = target: T44, 4H3907-bN; assay: two-hybrid library CCNG1
T44 chain: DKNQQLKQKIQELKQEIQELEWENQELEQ

[45] = target: T45, 4H1046-bN; assay: two-hybrid library CCNG1; conditions: mean of both orientations
T45 chain: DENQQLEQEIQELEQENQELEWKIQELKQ

[46] = target: T46, 4H344-bN; assay: two-hybrid library CCNG1
T46 chain: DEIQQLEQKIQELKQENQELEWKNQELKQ

[47] = target: T47, 4H1072-bN; assay: two-hybrid library CCNG1
T47 chain: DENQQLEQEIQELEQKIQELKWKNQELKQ

[48] = target: T48, 4H2619-bN; assay: two-hybrid library CCNG1
T48 chain: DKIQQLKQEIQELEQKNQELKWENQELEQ

[49] = target: T49, P6p; assay: two-hybrid library CCmax; conditions: mean of both orientations
T49 chain: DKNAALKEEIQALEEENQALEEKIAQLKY

[50] = target: T50, Core_NIII-es_KEEE; assay: two-hybrid library CCmax; conditions: mean of both orientations
T50 chain: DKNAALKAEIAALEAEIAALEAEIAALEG

[51] = target: T51, Core_NINN-es_KKEK; assay: two-hybrid library CCmax; conditions: mean of both orientations
T51 chain: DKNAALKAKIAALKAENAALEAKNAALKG

## DEIAQLEQEIAELKQKNAELKWEIAQLEQ [4H121-bA]
[1]
  interaction score: -1.32
[2]
  interaction score: -1.09
[3]
  interaction score: -0.283
[4]
  interaction score: -0.624
[5]
  interaction score: -1.51
[6]
  interaction score: -0.366
[7]
  interaction score: 1.92
[8]
  interaction score: -1.13
[9]
  interaction score: 0.693
[10]
  interaction score: 1.56
[11]
  interaction score: -1.51
[12]
  interaction score: -0.103
[13]
  interaction score: -0.0952
[14]
  interaction score: -0.579
[15]
  interaction score: -0.497
[16]
  interaction score: 0.0584
[17]
  interaction score: -1.19
[18]
  interaction score: -1.11
[19]
  interaction score: 0.764
[20]
  interaction score: -1.44
[21]
  interaction score: -3.87
[22]
  interaction score: -1.12

## DKNAQLKQENAELEQEIAELEWEIAQLEQ [O1-bA]
[23]
  interaction score: -0.889
[24]
  interaction score: 1.21
[25]
  interaction score: 0.415
[26]
  interaction score: -1.08
[27]
  interaction score: -1.05
[28]
  interaction score: -0.0848
[29]
  interaction score: -1.53
[30]
  interaction score: -0.823
[31]
  interaction score: -0.825
[32]
  interaction score: -1.23
[33]
  interaction score: -0.581
[34]
  interaction score: 2.31
[35]
  interaction score: -1.03
[36]
  interaction score: -1.59
[37]
  interaction score: -0.599
[38]
  interaction score: -1.02

## DENQQLEQEIQELEQENQELEWKIQELKQ [4H1046-bN]
[39]
  interaction score: 1.37
[40]
  interaction score: -0.252
[41]
  interaction score: 0.836
[42]
  interaction score: 0.0233
[43]
  interaction score: -0.112
[44]
  interaction score: -0.5
[45]
  interaction score: -0.38
[46]
  interaction score: 0.965
[47]
  interaction score: -0.367
[48]
  interaction score: -1.35

## DENAALEEKIAQLKQKNAALKEEIQALEY [P5p]
[49]
  interaction score: 1.9

## DENAALEAKIAALKAKIAALKAKIAALKG [Core_NIII-es_EKKK]
[50]
  interaction score: 2.17

## DENAALEAEIAALEAKNAALKAENAALEG [Core_NINN-es_EEKE]
[51]
  interaction score: 1.78
